The results in this text go back to article PMC5566378, “The human IL-17A/F heterodimer: a two-faced cytokine with unique receptor recognition properties” (Scientific Reports, 2017).

Numbering of substitutions follows the chain as printed. In names and notes the source's numbering stands.

What all share (conditions): both partners purified
Experiment [1] addresses T1, human IL-17RC extracellular domain (human, UniProt Q8NAC3-2 21-467).
T1 construct: human IL-17RC full-length extracellular domain, residues 21-467 of UniProt entry Q8NAC3-2, secreted with the CD33 signal peptide; numbers count on: isoform Q8NAC3-2; also called IL-17RC ECD; source: GnTI-deficient HEK293S, transient expression, purified (anti-APP antibody column, Resource-Q, Superdex-200 SEC)
T1 sequence (looked up): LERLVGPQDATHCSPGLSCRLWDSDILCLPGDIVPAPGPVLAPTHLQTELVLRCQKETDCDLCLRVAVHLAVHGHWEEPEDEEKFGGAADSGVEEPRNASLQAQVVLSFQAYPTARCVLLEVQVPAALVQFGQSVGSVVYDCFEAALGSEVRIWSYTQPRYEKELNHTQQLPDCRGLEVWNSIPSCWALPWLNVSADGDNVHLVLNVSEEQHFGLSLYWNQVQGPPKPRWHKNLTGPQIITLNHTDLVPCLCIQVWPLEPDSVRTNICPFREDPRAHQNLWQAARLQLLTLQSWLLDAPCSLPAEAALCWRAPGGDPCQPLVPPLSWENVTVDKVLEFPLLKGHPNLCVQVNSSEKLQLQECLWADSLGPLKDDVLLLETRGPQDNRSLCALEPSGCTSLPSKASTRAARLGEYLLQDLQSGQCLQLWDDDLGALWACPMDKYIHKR
The experiment in a line: SPR; Biacore 8K; IL-17RC ECD immobilised (about 500 RU) by amine coupling on a CM4 chip; cytokines as analytes in PBS pH 7.4, 3 mM EDTA, 0.05% Tween20; 20 °C, 30 µl/min; 1:1 Langmuir model, steady-state analysis for variants of weaker affinity; mean of at least five independent experiments. A general note: SPR reads the build-up and loss of mass on a sensor chip optically.

For experiment [2], the target named is T2, human IL-17RA extracellular domain (human, UniProt Q96F46 33-320, biotin on the Avi-tag (BirA) for SPR measurements).
T2 construct: human IL-17RA full-length extracellular domain, residues 33-320 of UniProt Q96F46, secreted with the CD33 signal peptide; The construct is described 'for crystallization'; the SPR sample is the same ECD biotinylated on its Avi-tag; In the crystal the complex was treated with PNGaseF and Endoglycosidase H and biotinylation is not mentioned; also called IL-17RA ECD; source: GnTI-deficient HEK293S, …
The experiment in a line: SPR; Biacore 8K; biotinylated IL-17RA ECD immobilised (about 500 RU) on a streptavidin SA chip; cytokines as analytes in PBS pH 7.4, 3 mM EDTA, 0.05% Tween20; 20 °C, 30 µl/min; 1:1 Langmuir model, steady-state analysis for variants of weaker affinity; mean of at least five independent experiments.

Experiment [3] addresses T3, human IL-17RC extracellular domain (human, UniProt Q8NAC3-2 21-467).
T3 construct: human IL-17RC, full-length extracellular domain, residues 21-467 of UniProt Q8NAC3-2, cloned behind the CD33 signal peptide; numbers count on: isoform Q8NAC3-2; also called IL-17RC ECD; IL-17RC receptor
T3 sequence (looked up): T1 sequence (looked up)
The experiment in a line: SPR; Biacore 8K; IL-17RC ECD amine-coupled on a CM4 chip (about 500 RU); cytokines as analytes in PBS pH 7.4, 3 mM EDTA, 0.05% Tween20; 20 °C, 30 µl/min; 1:1 Langmuir model or steady-state analysis.

Experiment [4] deals with T4, human IL-17RA extracellular domain (human, UniProt Q96F46 33-320, biotin on the Avi-tag (E. coli BirA), for the SPR measurements only).
T4 construct: human IL-17RA, full-length extracellular domain, residues 33-320 of UniProt Q96F46, cloned behind the CD33 signal peptide; The same construct was used unbiotinylated for the complex and its crystals (treated with PNGaseF and Endoglycosidase H) and biotinylated for SPR; also called IL-17RA ECD; IL-17RA receptor; source: GnTI-deficient HEK293S, transient expression, secreted, purified (anti-APP …)
The experiment in a line: SPR; Biacore 8K; biotinylated IL-17RA ECD immobilised on a streptavidin chip (about 500 RU); cytokines as analytes in PBS pH 7.4, 3 mM EDTA, 0.05% Tween20; 20 °C, 30 µl/min; 1:1 Langmuir model or steady-state analysis.

B1: human IL-17F homodimer, wild type (ligand, UniProt Q96PD4 31-163, looked up)
chain: RKIPKVGHTFFQKPESCPPVPGGSMKLDIGIINENQRVSMSRNIESRSTSPWNYTVTWDPNRYPSEVVQAQCRNLGCINAQGKEDISMNSVPIQQETLVVRRKHQGCSVSFQLEKVLVTVGCTCVTPVIHHVQ
notes: human IL-17F, residues 31-163 of UniProt Q96PD4, secreted with the CD33 signal peptide (P20138-1); also called IL-17F wt
In the case of B1, the Kd (usually the constant that tells how readily two partners part at equilibrium) in experiment [1] is 4 nM.

B2: human IL-17F homodimer, R77A (ligand, UniProt Q96PD4 31-163, looked up)
chain: B1 chain with R47A
notes: human IL-17F, residues 31-163 of UniProt Q96PD4, secreted with the CD33 signal peptide, Arg77 to alanine; also called IL-17F R77A; source: HEK293S, transient expression, purified (as the wild type)
As for B2, the Kd in experiment [1] came out at 905 nM; in experiment [2], 726 nM.

B3: human IL-17F homodimer, Arg77 to alanine mutant (ligand, UniProt Q96PD4 31-163, looked up)
chain: B1 chain with R47A
notes: human IL-17F, residues 31-163 of UniProt Q96PD4, cloned behind the CD33 signal peptide and the APP6-tag, R77A; also called IL-17F R77A; point mutant of the IL-17F homodimer; source: HEK293S, transient expression, secreted, purified
For B3, in experiment [3], the “fold reduction in binding affinity against wild-type IL-17F” value is no less than 200 fold. In addition, the “fold reduction in affinity against wild-type IL-17F” value in experiment [4] is greater than 5 fold.
